Laboratory results taken from PMC3168947 (Molecular cell, 2011).
Where two headings read alike, the source gives them in different places. No end group written: not given here.

What was measured:
[1] = molecular target: fluorescent N-end-rule peptide …-fl; assay: fluorescence polarisation
ClpA6 = ClpA6 (Escherichia coli, UniProt P0A8Q6+P0ABH9, C101S/C73V/E96C); type: binding, E. coli
^ΔLClpA6 = assay: Binding of ClpS*^F to ^ΔLClpA6, with or without peptide; parameters: species or system E. coli; settings: 20 μM LLYVQRDSKEC; Fig. 3E; in words
[2] = molecular target: T1, ClpS^core (E. coli ClpS residues 26-106) (E. coli, UniProt P0A8Q6 26-106); assay: fluorescence polarisation
T1 sequence (looked up): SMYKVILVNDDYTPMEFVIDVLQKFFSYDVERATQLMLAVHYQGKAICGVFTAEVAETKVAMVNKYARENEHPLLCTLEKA

[3] = molecular target: T2, ClpS adaptor (intact, wild type) (E. coli, UniProt P0A8Q6 1-106); assay: fluorescence polarisation
T2 sequence (looked up): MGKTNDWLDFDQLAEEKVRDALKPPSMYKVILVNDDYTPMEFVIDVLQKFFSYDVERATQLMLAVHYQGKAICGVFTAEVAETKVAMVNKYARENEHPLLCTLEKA

L22 ClpS with ClpA6 = molecular target: T3, L22 ClpS with ClpA6 (E. coli, UniProt P0ABH9 1-758; P0A8Q6 22-106); assay: fluorescence polarisation
T3 sequence (looked up) 1: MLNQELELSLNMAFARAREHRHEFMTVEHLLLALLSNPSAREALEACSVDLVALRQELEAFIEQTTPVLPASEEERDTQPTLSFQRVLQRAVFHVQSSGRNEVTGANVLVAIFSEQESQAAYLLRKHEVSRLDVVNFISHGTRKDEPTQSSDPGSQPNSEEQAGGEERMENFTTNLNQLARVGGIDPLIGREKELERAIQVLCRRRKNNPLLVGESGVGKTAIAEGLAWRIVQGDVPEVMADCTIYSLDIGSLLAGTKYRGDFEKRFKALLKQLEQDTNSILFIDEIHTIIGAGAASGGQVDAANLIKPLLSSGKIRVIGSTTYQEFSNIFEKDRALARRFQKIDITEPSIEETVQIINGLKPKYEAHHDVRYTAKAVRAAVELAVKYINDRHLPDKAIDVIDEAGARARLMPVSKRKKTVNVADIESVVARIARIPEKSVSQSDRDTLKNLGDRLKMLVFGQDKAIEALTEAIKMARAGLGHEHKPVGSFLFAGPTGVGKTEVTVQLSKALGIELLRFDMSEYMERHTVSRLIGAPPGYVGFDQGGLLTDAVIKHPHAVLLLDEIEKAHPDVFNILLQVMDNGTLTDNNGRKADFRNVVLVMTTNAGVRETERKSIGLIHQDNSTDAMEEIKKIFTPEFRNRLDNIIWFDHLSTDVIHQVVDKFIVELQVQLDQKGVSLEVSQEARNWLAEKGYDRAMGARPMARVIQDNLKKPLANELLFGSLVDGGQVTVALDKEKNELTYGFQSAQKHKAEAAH
T3 sequence (looked up) 2: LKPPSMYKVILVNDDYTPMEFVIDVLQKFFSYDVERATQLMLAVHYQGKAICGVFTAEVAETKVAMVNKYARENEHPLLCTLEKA

ClpS-ClpA6 complex = molecular target: T4, ClpS-ClpA6 complex (E. coli, UniProt P0ABH9 1-758; P0A8Q6 1-106); assay: fluorescence polarisation
T4 sequence (looked up) 1: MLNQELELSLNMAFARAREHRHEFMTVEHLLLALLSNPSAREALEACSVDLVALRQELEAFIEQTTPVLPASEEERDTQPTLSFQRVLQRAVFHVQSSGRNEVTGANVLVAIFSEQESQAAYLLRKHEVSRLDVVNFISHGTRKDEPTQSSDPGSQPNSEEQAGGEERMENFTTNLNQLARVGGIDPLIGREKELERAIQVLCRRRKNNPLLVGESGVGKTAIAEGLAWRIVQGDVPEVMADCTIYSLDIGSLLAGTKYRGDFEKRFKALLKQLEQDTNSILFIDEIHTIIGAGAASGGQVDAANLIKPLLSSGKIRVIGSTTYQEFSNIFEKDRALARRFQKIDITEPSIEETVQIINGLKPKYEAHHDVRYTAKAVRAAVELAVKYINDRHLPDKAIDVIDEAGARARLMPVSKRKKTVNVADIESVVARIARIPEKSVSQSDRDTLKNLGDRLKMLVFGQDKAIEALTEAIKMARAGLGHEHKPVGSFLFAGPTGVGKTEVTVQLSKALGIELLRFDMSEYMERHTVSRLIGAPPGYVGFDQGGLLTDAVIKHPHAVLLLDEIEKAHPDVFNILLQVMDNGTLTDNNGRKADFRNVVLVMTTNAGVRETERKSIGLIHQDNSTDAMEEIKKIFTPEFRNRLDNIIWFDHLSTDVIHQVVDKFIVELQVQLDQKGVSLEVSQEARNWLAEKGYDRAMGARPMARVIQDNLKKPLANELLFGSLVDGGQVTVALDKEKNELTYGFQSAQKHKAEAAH
T4 sequence (looked up) 2: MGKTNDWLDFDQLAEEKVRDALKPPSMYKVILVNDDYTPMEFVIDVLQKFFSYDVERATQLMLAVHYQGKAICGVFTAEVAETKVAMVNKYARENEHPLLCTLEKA

D20 ClpS with ClpA6 = molecular target: T5, D20 ClpS with ClpA6 (E. coli, UniProt P0ABH9 1-758; P0A8Q6 20-106); assay: fluorescence polarisation
T5 sequence (looked up) 1: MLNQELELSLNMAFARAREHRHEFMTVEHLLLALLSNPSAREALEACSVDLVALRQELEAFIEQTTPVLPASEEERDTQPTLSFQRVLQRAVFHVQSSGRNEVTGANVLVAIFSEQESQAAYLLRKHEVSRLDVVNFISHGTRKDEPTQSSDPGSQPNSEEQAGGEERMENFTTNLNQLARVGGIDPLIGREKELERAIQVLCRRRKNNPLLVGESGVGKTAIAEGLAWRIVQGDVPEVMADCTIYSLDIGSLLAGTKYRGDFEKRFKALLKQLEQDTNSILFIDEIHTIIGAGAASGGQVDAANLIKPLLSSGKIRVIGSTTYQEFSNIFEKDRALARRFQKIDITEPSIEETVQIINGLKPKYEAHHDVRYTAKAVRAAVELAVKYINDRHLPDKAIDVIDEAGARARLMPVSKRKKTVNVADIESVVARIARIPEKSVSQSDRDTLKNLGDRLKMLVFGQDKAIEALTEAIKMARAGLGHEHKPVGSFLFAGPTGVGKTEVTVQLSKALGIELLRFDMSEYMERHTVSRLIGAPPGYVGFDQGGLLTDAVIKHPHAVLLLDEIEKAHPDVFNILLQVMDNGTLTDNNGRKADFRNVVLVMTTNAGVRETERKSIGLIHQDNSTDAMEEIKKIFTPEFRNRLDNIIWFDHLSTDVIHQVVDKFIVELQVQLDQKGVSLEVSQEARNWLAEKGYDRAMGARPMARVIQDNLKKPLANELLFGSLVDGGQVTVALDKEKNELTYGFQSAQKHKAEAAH
T5 sequence (looked up) 2: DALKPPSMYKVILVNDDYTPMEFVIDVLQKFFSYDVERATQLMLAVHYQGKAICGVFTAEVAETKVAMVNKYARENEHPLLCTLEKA

[4] = molecular target: T6, ClpA6 (hexameric ClpA unfoldase, stabilised by ATPγS) (E. coli, UniProt P0ABH9 1-758); assay: fluorescence polarisation
T6 sequence (looked up): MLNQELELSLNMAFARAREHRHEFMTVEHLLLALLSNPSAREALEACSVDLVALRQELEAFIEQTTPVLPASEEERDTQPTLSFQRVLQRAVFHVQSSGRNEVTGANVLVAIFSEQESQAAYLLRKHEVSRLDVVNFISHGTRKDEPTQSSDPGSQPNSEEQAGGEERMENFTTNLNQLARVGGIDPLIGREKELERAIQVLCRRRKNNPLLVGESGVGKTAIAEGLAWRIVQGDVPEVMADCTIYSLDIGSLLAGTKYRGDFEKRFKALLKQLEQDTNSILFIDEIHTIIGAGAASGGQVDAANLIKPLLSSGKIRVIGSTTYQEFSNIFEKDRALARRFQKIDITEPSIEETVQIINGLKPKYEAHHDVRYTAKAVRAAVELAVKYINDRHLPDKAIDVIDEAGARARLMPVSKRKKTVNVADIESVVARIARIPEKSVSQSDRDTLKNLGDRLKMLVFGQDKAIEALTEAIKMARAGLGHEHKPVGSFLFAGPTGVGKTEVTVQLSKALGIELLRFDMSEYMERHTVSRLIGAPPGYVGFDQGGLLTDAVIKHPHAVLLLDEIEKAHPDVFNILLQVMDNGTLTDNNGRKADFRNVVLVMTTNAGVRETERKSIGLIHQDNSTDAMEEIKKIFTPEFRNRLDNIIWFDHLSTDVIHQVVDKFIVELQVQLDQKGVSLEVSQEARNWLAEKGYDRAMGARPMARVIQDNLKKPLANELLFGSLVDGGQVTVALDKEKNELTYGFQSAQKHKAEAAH

[5] = molecular target: T6, ClpA6 (hexameric ClpA unfoldase, …); assay: fluorescence polarisation; remark: listed apart in the source
[6] = molecular target: T6, ClpA6 (hexameric ClpA unfoldase, …); assay: fluorescence polarisation; remark: listed apart in the source
[7] = molecular target: T6, ClpA6 (hexameric ClpA unfoldase, …); assay: fluorescence polarisation; remark: listed apart in the source

ClpS in complex with the ClpA N domain (from UniProt P0A8Q6 1-106)
Kd [1]: 3000 nM

LLYVQRDSKEC
ClpA6 bound ClpS*^F more tightly, fold (ClpA6; excess peptide, compared with MLYVQRDSKEC peptide or absence of ligand): at least 9 fold | Kapp of ClpA6 for ClpS*^F in presence of peptide (ClpA6; fluorescence anisotropy, 200 nM ClpS*^F, 20 μM peptide, ATPγS, Fig. 3A): < 20 nM | enhancement of ClpS*^F binding to ^ΔLClpA6 by N-end-rule peptide (^ΔLClpA6): enhanced binding of ClpS*^F to ClpA6 but not to ^ΔLClpA6

LLYVQRDSKEC(fluorescein maleimide) [fluorescent N-end-rule peptide LLYVQRDSKEC-fl]
Kd [2]: ~3000 nM | Kd [3]: ~3000 nM | Kd (L22 ClpS with ClpA6): 290 nM | Kd (ClpS-ClpA6 complex): 43 nM | Kd (D20 ClpS with ClpA6): 130 nM

B1: ClpS*^F (ClpS C73V; C101S; E96C labelled with fluorescein) (natural protein, E. coli, UniProt P0A8Q6 1-106, looked up)
chain: MGKTNDWLDFDQLAEEKVRDALKPPSMYKVILVNDDYTPMEFVIDVLQKFFSYDVERATQLMLAVHYQGKAIVGVFTAEVAETKVAMVNKYARENCHPLLSTLEKA
modifications: fluorescein maleimide on the single cysteine
Kd [4]: 200 ± 6 nM | Kd [5]: ~180 nM | Kd [6]: < 20 nM

B2: ^H66AClpS*^F bound to the N-end-rule peptide LLYVQRDSKEC (complex, E. coli)
chain: MGKTNDWLDFDQLAEEKVRDALKPPSMYKVILVNDDYTPMEFVIDVLQKFFSYDVERATQLMLAVAYQGKAIVGVFTAEVAETKVAMVNKYARENCHPLLSTLEKA
peptide: LLYVQRDSKEC
modifications: fluorescein maleimide on the single cysteine
Kd [7]: 178 ± 4 nM
